How the values were obtained:
[1] = target: T1, BSA (Bos taurus, UniProt P02769); test: Real-time monitoring of trypsin digestion of BSA using epicocconone (FluoStar assay); type: biochemical, bovine; conditions: epicocconone reporter dye, bicine pH 8.4, 37° C., trypsin 1:40, reduced and alkylated BSA
T1 construct: purchased Sigma-Aldrich A3059
Procedure: A.3.1 Preparation of BSA for digestion • 1 Trypsin digestion was carried out in bicine buffer (ph 8.4). • 2 BSA was prepared in 10 mg/mL in 50 mM bicine buffer. • 3 One hundred microliter of the BSA sample was used for trypsin digestion.
A.3.2 Reduction and Alkylation • 1 The 100 μL of BSA sample was reduced by adding 5 μL of DTT stock for 10 min at 80° C. • 2 The sample was alkylated by adding 4 μL of the iodoacetamide stock at room temperature for 45 min-1 hr. • 3 The remaining iodoacetamide of the sample was neutralized by adding 20 μL of the DTT at room temp for 45 min-1 hr.
A.3.3 Real-Time Monitoring of Trypsin Digestion Using Epicocconone (FluoStar Assay) • 1 The reduced and denatured BSA sample from 3.2 above was diluted 10-fold in 50 mM bicine buffer (25 μL+225 μL bicine buffer). BSA molar concentration was calculated to be approx. 4 μM. • 2 One hundred microliter of the sample (step 1) was prepared in duplicates and added to a microtiter plate. […] At this point in time, it required approximately 10 min to get appropriate FluoStar setting conditions. • 4 Trypsin (Sigma-Aldrich T6567), reconstituted in 1 mM HCl, was added at a ratio of 1:40. • 5 Fluorescence development was monitored in real time every 2 minutes up to 6 hours using FluoStar (Ex/Em=540/630±12). […]

[2] = target: T1, BSA; test: Sub-sampled BSA tryptic digest visualised by SDS-PAGE (Deep Purple stain); type: biochemical, bovine
Procedure: A.3.4 Visualization of Trypsin Digests in SDS-PAGE • 1 The reduced and denatured BSA sample from 3.2 above was diluted 10-fold in 50 mM bicine buffer (25 μL+225 μL bicine buffer). BSA molar concentration was calculated to be approx. 4 μM. • 2 One hundred microliter of the sample (step 1) was added to a 1.5 mL microtube. Controls included a bicine-based digestion buffer and an undigested BSA sample (no trypsin). • 3 Epicocconone stock solution was diluted 100-fold in 50 mM bicine. One hundred microliter of diluted epicocconone solution was added to each corresponding well. The final concentration was 12 μM. […] At each sampling point, 15 μL of the samples were taken out, immediately mixed with 15 μL of a protein gel loading buffer (2×), denatured for 5 min at 85° C., and stored at −80° C. • 6 The sub-samples collected as described above were run by SDS-PAGE (Nupage, 12% BT gel), and gels were stained with Deep Purple for visualization. • 7 The Deep Purple-stained gels were imaged by Typhoon scanner (Ex:Em=532:560 LP; 440 PMT). • 8 All the gel lanes showing digested (FIG. 12A) and undigested (FIG. 12B) protein samples were equally gated, and the fluorescent intensity was measured by ImageQuant (v 5.2) software.
The results from the subsampled reaction was similarly analysed but without the term associated with degradation of the signal with time as this is not relevant in gels. […]

T1 sequence (P02769 25-607): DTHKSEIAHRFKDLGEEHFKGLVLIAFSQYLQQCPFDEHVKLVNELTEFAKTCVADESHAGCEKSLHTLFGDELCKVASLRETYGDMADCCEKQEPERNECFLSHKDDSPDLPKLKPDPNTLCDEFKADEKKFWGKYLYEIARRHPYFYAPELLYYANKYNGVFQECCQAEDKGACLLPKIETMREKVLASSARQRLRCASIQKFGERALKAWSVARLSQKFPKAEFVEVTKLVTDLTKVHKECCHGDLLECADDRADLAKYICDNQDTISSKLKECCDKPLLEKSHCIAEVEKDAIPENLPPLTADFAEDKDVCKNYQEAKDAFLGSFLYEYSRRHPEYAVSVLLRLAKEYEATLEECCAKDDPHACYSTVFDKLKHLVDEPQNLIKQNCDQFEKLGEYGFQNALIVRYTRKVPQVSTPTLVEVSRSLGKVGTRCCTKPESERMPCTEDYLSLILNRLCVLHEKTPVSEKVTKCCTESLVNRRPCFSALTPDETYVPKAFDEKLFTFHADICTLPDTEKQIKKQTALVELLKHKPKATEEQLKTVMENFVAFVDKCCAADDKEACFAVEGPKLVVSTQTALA

B1: trypsin: Proteomics grade trypsin protease, Sigma-Aldrich T6567 (protein, UniProt P00761 9-231, looked up)
Trypsin: IVGGYTCAANSIPYQVSLNSGSHFCGGSLINSQWVVSAAHCYKSRIQVRLGEHNIDVLEGNEQFINAAKIITHPNFNGNTLDNDIMLIKLSSPATLNSRVATVSLPRSCAAAGTECLISGWGNTKSSGSSYPSLLQCLKAPVLSDSSCKSSYPGQITGNMICVGFLEGGKDSCQGDSGGPVVCNGQLQGIVSWGYGCAQKNKPGVYTKVCNYVNWIQQTIAAN
- apparent first order rate constant [1]: 0.109 min⁻¹
- time for digestion to reach completion ([2]; SDS-PAGE, bicine and carbonate (NH4HCO3) digestion buffers): 0.5 to 1 h
- apparent first order rate constant ([2]; sub-sampled reaction, gel fluorescence intensity, 0-128 min): 0.3136 min⁻¹

Reference: patent US20090111104A1, “Method for Monitoring Hydrolytic Activity” (Fluorotechnics Pty Limited, priority 2005, published 2009)
